Assay results as given in patent publication US20260232829A1 (CYTOSPIRE THERAPEUTICS, published 2026).

B1: Human his-tagged NKG2D/CD314 (Acro Biosystems, NKD-H5245) (receptor, UniProt P26718 78-216, looked up)
chain: FLNSLFNQEVQIPLTESYCGPCPKNWICYKNNCYQFFDESKNWYESQASCMSQNASLLKVYSKEDQDLLKLVKSYHWMGLVHIPTNGSWQWEDGSILSPNLLTIIEMQKGDCALYASSFKGYIENCSTPNTYICMQRTV
notes: Bought recombinant protein with a His tag; also called Human NKG2D-His protein; NKG2D-His

Columns and labels:
[1] = target: B1; test: SPR (Biacore), molecule captured on anti-human IgG Fc chip, antigen as analyte, 1:1 Langmuir fit
Procedure: (§1) In brief, the test molecules were first immobilized on a goat anti-human IgG (Fc specific) antibody plated on a Biacore CM5 Series S sensor chip (CFJB1172, Cytiva Cat No. 29149603) by injection at 5 nM at flow rate 30 ul/min. […] The quality of the fits was assessed by visual inspection.

CYTB29 [2] = target: T1, CYTB29; test: as above
T1 construct: Comparator, Format G: three chains, monovalent for NKG2D (H5/L5) and IL-15 receptor beta; wild-type IL-15
Procedure: as §1

CYTB04 = target: T2, CYTB04; test: as above
T2 construct: Immunocytokine, Format A: anti-NKG2D IgG1 (H5/L5) with sushi-IL-15 at the C-terminus of each heavy chain
Procedure: as §1

CYTB29 [3] = target: T1, CYTB29; test: SPR avidity format, antigen immobilised on CM5 chip, test molecule injected as analyte
Source text: (§2) In order explore avidity binding effects (rather than affinity), a different assay orientation was employed. Specifically, the recombinant target human antigens (NKG2D-His or IL-15 receptor beta-His antigens, see Example 5) were immobilized on CM5 Series S sensor chips (Cytiva, catalogue number 29149603). […] Irrelevant mAbs were employed to determine and subtract background. As previously (Example 5), standard regeneration solutions and buffers were employed. To determine and compare avidity effects, test molecules were the injected in stepwise serial dilutions and sensogram responses generated.

CYTB30 = target: T3, CYTB30; test: SPR avidity format, antigen immobilised on CM5 chip, test molecule injected as analyte; avidity format of Table 6 (Example 6); not the capture format of Table 5
T3 construct: Comparator, Format G: three chains, monovalent for both targets; also called CYB30
Source text: as §2

| Binder | Kd [1] [nM] | Kd (CYTB29 [2]) [nM] | Kd (CYTB04) [nM] | Kd (CYTB29 [3]) [nM] | Kd (CYTB30) [nM] |
| --- | --- | --- | --- | --- | --- |
| CYTB21 (antibody, human IgG1, kappa, V domains shown, Control, Format E: anti-NKG2D IgG1 (H6/L6) without IL-15 components; also called CYB21; anti-NKG2D IgG1) VH: EVQLVQSGAEVKEPGESLKISCKNSGYSFTNYWVGWVRQMPGKGLEWMGIIYPGDSDTRYSPSFQGQVTISADKSINTAYLQWSSLKASDTAMYYCGRLTMFRGIIIGYFDYWGQGTLVTVSS VL: EIVLTQSPATLSLSPGERATLSCRASQSVSSYLAWYQQKPGQAPRLLIYDASNRATGIPARFSGSGSGTDFTLTISSLEPEDFAVYYCQQRSNWPWTFGQGTKVEIKR | 1.65 | – | – | – | – |
| Human IL-15R beta/CD122 Protein, His Tag (Acro Biosystems CD2-H5221) (receptor, UniProt P14784 27-239, looked up, Bought recombinant protein with a His tag; also called Human IL-15Rβ protein; IL-15 receptor beta-His) AVNGTSQFTCFYNSRANISCVWSQDGALQDTSCQVHAWPDRRRWNQTCELLPVSQASWACNLILGAPDSQKLTTVDIVTLRVLCREGVRWRVMAIQDFKPFENLRLMAPISLQVVHVETHRCNISWEISQASHYFERHLEFEARTLSPGHTWEEAPLLTLKQKQEWICLETLTPDTQYEFQVRVKPLQGEFTTWSPWSQPLAFRTKPAALGKD | – | 3.52 | 6 | 6.4 | – |
| B1 | – | 1.92 | 1.25 | 4.8 | 3830 |
